Test results: US6890726, “Method for selecting recombinase variants with altered specificity” (Oklahoma Medical Research Foundation)

Key:
Details in all cases: chain copies: 4
Cre E262A = Cre E262A (UniProt P06956 P06956:1-343, E262A); assay: cell_activity; E. coli
Excerpt: (§1) The three defined Cre mutants for the amino acid position 262 were subjected to a functional test for loxK2, loxK1 and loxP recombination activity, as mentioned before. […] To conclude, this final experiment provides the necessary evidence that the E262G mutation presents the basis for the observed decrease in specificity of Cre. However, additional mutations seem to be helpful to increase the newly obtained activity further. In addition, glycine at position 262 is not the only possible residue to permit a remarkable increase in loxK2 activity.
(§2) The results of functional testing of three defined Cre mutants for position 262 compared to wt Cre are listed. All enzymes were checked on loxK2, loxP and loxK1 recombination in the selection strains BS1494, BS1493 and the control strain BS1541. In the first column the Cre candidate is indicated, in the second the allowed time for cre expression. The three following columns show the calculated percentages of Kan^R when subjecting the different Cre mutants and wt Cre to the three selection strains. The frequency of the observed Kan^R phenotype is considered as an indicator for the frequency of […] recombination: On loxK2, E262G and E262W show approximately an 10^3 fold increased Kan^R frequency compared to wt Cre, whereas E262A results in a 200 fold increase. […]

Cre R3M3 (mxoxox 3) = molecular target: T1, Cre R3M3 (mxoxox 3) (UniProt P06956 SEQ:1-343); assay: cell_activity; E. coli
T1 chain: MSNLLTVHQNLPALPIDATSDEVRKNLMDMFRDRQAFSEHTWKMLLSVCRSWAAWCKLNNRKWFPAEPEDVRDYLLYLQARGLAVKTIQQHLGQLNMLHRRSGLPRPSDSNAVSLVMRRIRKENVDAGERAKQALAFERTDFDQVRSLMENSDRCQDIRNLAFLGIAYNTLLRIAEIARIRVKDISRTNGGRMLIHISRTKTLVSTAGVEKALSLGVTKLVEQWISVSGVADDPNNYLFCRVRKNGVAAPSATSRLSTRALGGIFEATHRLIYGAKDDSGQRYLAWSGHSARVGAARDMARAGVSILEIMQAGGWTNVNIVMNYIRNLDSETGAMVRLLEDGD

Cre R3M1 (mxoxox 1) = molecular target: T2, Cre R3M1 (mxoxox 1) (UniProt P06956 SEQ:1-343); assay: cell_activity; E. coli
T2 chain: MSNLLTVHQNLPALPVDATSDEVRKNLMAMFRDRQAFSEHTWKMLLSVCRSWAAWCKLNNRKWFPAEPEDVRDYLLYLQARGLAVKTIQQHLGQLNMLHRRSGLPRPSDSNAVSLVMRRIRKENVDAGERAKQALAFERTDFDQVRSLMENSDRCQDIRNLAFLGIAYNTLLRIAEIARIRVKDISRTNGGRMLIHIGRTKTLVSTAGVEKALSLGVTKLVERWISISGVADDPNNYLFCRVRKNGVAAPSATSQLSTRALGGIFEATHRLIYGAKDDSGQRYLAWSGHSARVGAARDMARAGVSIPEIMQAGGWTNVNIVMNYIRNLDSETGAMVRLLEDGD

Cre R3M2 (mxoxox 2) = molecular target: T3, Cre R3M2 (mxoxox 2) (UniProt P06956 SEQ:1-343); assay: cell_activity; E. coli
T3 chain: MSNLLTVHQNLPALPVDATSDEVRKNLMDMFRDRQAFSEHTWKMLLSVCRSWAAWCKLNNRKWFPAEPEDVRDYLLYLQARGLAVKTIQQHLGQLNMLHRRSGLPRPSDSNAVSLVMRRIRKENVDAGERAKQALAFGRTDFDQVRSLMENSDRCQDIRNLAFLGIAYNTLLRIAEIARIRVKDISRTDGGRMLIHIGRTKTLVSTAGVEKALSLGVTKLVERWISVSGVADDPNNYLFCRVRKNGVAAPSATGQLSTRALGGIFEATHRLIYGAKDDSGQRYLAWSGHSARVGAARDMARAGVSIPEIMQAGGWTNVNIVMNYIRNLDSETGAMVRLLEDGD

Cre E262W = Cre E262W (UniProt P06956 P06956:1-343, E262W); assay: cell_activity; similar to E262G
Excerpt: as §1, §2

B1: loxK2 (selection plasmid pBS584) (dsDNA)
DNA 1: GATACAACGTATATACCTTTCTATACGTTGTATT
DNA 2: AATACAACGTATAGAAAGGTATATACGTTGTATC
B1 showed an activity (Cre E262A) of 200 fold vs wt, an activity (Cre R3M3 (mxoxox 3)) of about 50 % recombination and an activity (Cre R3M1 (mxoxox 1)) of about 50 % recombination. For the same binder, the activity (Cre R3M2 (mxoxox 2)) was about 50 % recombination and the activity (Cre E262W) was about 1000 fold vs wt.
